± gives the standard deviation of the averaged measurements.
Test system: Saccharomyces cerevisiae
Test: protein stability index of tFT-peptide fusion (C-terminal peptide) (PSI (0-1 scale)); higher = more stable (slower turnover)
Conditions: temperature: 30 C
Protocol: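 MPS profiling in S. cerevisiae of the yeast C-terminome library: the last 12 aa of each annotated ORF are fused to the C-terminus of a sfGFP-mCherry timer, after a GGGS linker. Cells are FACS-sorted into 8 mCherry/sfGFP bins and deep-sequenced. PSI runs from 0 (unstable) to 1 (stable); wild type and das1Δ backgrounds, two technical replicates each.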

[1] = genetic background: das1 deletion

KGGEDGSLVSSN [NHP10 C-terminal 12 aa]
protein stability index [1]: 0.688 ± 0.014 | protein stability index (genetic background: wild type): 0.709 ± 0.011

PSTLIITTLLFK [YJR023C C-terminal 12 aa]
protein stability index [1]: 0.618 ± 0.051 | protein stability index (genetic background: wild type): 0.61 ± 0.017

EYNLDTFIKTLR [MOT1 C-terminal 12 aa]
protein stability index [1]: 0.7535 ± 0.0064 | protein stability index (genetic background: wild type): 0.6883 ± 0.0023

CDLVKNSNGLST [YOR200W C-terminal 12 aa]
protein stability index [1]: 0.68 ± 0.01 | protein stability index (genetic background: wild type): 0.685 ± 0.039

TFQKAQVEAEWV [TOA1 C-terminal 12 aa]
protein stability index [1]: 0.70901 ± 0.00064 | protein stability index (genetic background: wild type): 0.692 ± 0.027

LHTEREKKKKKF [YKR040C C-terminal 12 aa]
protein stability index [1]: 0.725 ± 0.043 | protein stability index (genetic background: wild type): 0.682 ± 0.1

ALPTYTMEYLDI [UTP8 C-terminal 12 aa]
protein stability index [1]: 0.72 ± 0.032 | protein stability index (genetic background: wild type): 0.698 ± 0.035

IGIGFGVGIIRE [BUD9 C-terminal 12 aa]
protein stability index [1]: 0.698 ± 0.052 | protein stability index (genetic background: wild type): 0.686 ± 0.036

KLYNYLLSIEVY [YLR123C C-terminal 12 aa]
protein stability index [1]: 0.144 ± 0.013 | protein stability index (genetic background: wild type): 0.191 ± 0.0098

ILERRLNEDHDC [KXD1 C-terminal 12 aa]
protein stability index [1]: 0.696 ± 0.025 | protein stability index (genetic background: wild type): 0.6885 ± 0.0056

PSSDHAKSVMGE [YML101C-A C-terminal 12 aa]
protein stability index [1]: 0.707 ± 0.018 | protein stability index (genetic background: wild type): 0.6804 ± 0.0044

ELIEKLKEVKAI [CIR1 C-terminal 12 aa]
protein stability index [1]: 0.686 ± 0.018 | protein stability index (genetic background: wild type): 0.34 ± 0.013

PKFSKPDPLKRD [SAC1 C-terminal 12 aa]
protein stability index [1]: 0.72 ± 0.01 | protein stability index (genetic background: wild type): 0.6853 ± 0.005

DGKIKIWKISRN [GID7 C-terminal 12 aa]
protein stability index [1]: 0.701 ± 0.021 | protein stability index (genetic background: wild type): 0.711 ± 0.086

QLSRNEESLMKK [COS5 C-terminal 12 aa]
protein stability index [1]: 0.7 ± 0.015 | protein stability index (genetic background: wild type): 0.752 ± 0.059

IADASSLSWNMK [LEM3 C-terminal 12 aa]
protein stability index [1]: 0.697 ± 0.038 | protein stability index (genetic background: wild type): 0.719 ± 0.011

PLWNQRRDDLFH [NIT2 C-terminal 12 aa]
protein stability index [1]: 0.74 ± 0.042 | protein stability index (genetic background: wild type): 0.744 ± 0.055

NFVSQYRNDEIY [YOR381W-A C-terminal 12 aa]
protein stability index [1]: 0.688 ± 0.032 | protein stability index (genetic background: wild type): 0.659 ± 0.023

EETEKKLKNLKL [YRB30 C-terminal 12 aa]
protein stability index [1]: 0.703 ± 0.029 | protein stability index (genetic background: wild type): 0.684 ± 0.037

YRIIDCVIAQLP [NVJ3 C-terminal 12 aa]
protein stability index [1]: 0.669 ± 0.045 | protein stability index (genetic background: wild type): 0.655 ± 0.046

LIVSYCASVAFG [ATG12 C-terminal 12 aa]
protein stability index [1]: 0.366 ± 0.013 | protein stability index (genetic background: wild type): 0.382 ± 0.0029

ELKINNDGRLVN [SEC66 C-terminal 12 aa]
protein stability index [1]: 0.7137 ± 0.0053 | protein stability index (genetic background: wild type): 0.714 ± 0.074

SQLPSLYAPSYY [SSU72 C-terminal 12 aa]
protein stability index [1]: 0.703 ± 0.02 | protein stability index (genetic background: wild type): 0.7264 ± 0.0056

NKRLKKILNNTK [RME1 C-terminal 12 aa]
protein stability index [1]: 0.702 ± 0.014 | protein stability index (genetic background: wild type): 0.674 ± 0.023

ISWLEKMKKFFH [MAM33 C-terminal 12 aa]
protein stability index [1]: 0.7163 ± 0.0048 | protein stability index (genetic background: wild type): 0.693 ± 0.009

PAKFGIQFQYST [MDM10 C-terminal 12 aa]
protein stability index [1]: 0.697 ± 0.021 | protein stability index (genetic background: wild type): 0.662 ± 0.038

EGSAFKKQKHYR [NOP9 C-terminal 12 aa]
protein stability index [1]: 0.703 ± 0.0097 | protein stability index (genetic background: wild type): 0.701 ± 0.012

GKTDYLDTKLIF [EKI1 C-terminal 12 aa]
protein stability index [1]: 0.739 ± 0.02 | protein stability index (genetic background: wild type): 0.726 ± 0.0084

YVSHKGFIVEDM [RPL9B C-terminal 12 aa]
protein stability index [1]: 0.695 ± 0.0088 | protein stability index (genetic background: wild type): 0.6932 ± 0.006

PNVSYIEEKLNQ [MAS1 C-terminal 12 aa]
protein stability index [1]: 0.702 ± 0.015 | protein stability index (genetic background: wild type): 0.717 ± 0.011

TAPLGKALHDLS [REE1 C-terminal 12 aa]
protein stability index [1]: 0.687 ± 0.059 | protein stability index (genetic background: wild type): 0.72 ± 0.059

PELSSTVSHNRA [WSC3 C-terminal 12 aa]
protein stability index [1]: 0.693 ± 0.035 | protein stability index (genetic background: wild type): 0.783 ± 0.07

NNASEDDRGIRV [STB2 C-terminal 12 aa]
protein stability index [1]: 0.6973 ± 0.0012 | protein stability index (genetic background: wild type): 0.685 ± 0.089

YNKICSLASRVI [MRPL38 C-terminal 12 aa]
protein stability index [1]: 0.669 ± 0.0074 | protein stability index (genetic background: wild type): 0.673 ± 0.017

GYIVGVAALLFL [ANS1 C-terminal 12 aa]
protein stability index [1]: 0.428 ± 0.011 | protein stability index (genetic background: wild type): 0.4532 ± 0.004

FMWLLLALPVVF [FLO11 C-terminal 12 aa]
protein stability index [1]: 0.362 ± 0.027 | protein stability index (genetic background: wild type): 0.393 ± 0.019

LNDMVLELKENY [NNF1 C-terminal 12 aa]
protein stability index [1]: 0.698 ± 0.015 | protein stability index (genetic background: wild type): 0.704 ± 0.0096

HNLHSYEKRLYN [IMD4 C-terminal 12 aa]
protein stability index [1]: 0.702 ± 0.025 | protein stability index (genetic background: wild type): 0.672 ± 0.013

LSEKIYDAFGKL [MUS81 C-terminal 12 aa]
protein stability index [1]: 0.723 ± 0.015 | protein stability index (genetic background: wild type): 0.7271 ± 0.0047

EVTSLYTNASNA [DPC29 C-terminal 12 aa]
protein stability index [1]: 0.715 ± 0.011 | protein stability index (genetic background: wild type): 0.703 ± 0.049

LYDNIRSGNFGI [MSB1 C-terminal 12 aa]
protein stability index [1]: 0.771 ± 0.008 | protein stability index (genetic background: wild type): 0.6503 ± 0.00092
